Measured values reported in the supplement of paper PMC10126150.
± gives the standard deviation of the averaged measurements.

Tested on: ATP
Assay: switch fluorescence ratio, 500 uM ATP over buffer (Cy3 cluster intensity, sum of 5 cycles each) (fold (ratio)); higher = stronger signal-on switching upon ATP binding; sequences stand for … in TCGTCGGCAGCGTCAGATGTGTATAAGAGACAGTTTTTTTTTTTTTTTTTTTTTTTTT…TC
Settings: aptamer strand: ATP DNA aptamer (quencher-CACCTGGGGGAGTATTGCGGAGGAAGG + anchor), 100 nM annealed; ATP concentration: 500 uM
Method in brief: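 Values give the fluorescence ratio for each switch-domain sequence, averaged from per-cluster ratios of summed target-cycle to summed buffer-cycle Cy3 intensity. The Cy3-labelled switching-strand clusters sat on a modified Illumina MiSeq flow-cell, were annealed to 100 nM quencher-labelled ATP aptamer, and were imaged in selection buffer, then after 15 min with 500 uM ATP at 22 °C. Five cycles ran with NaOH stripping and re-annealing between them, and clusters outside 100-1000 RFU were excluded.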
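Note: ATP exposure 15 min at 22 °C before imaging.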

Row | Sequence | switch fluorescence ratio
1 | TGACTGTTTG | 0.984 ± 0.04
2 | TGACTTAACT | 1.09 ± 0.034
3 | TGACTTGAGC | 1.01 ± 0.058
4 | TGACTTGGG | 0.935 ± 0.02
5 | TGACTTGGGG | 0.995 ± 0.033
6 | TGAGAAAGGG | 0.982 ± 0.0019
7 | TGAGAAAGGT | 0.965 ± 0.044
8 | TGAGAAGGGA | 1.02 ± 0.22
9 | TGAGAAGTCA | 0.9785 ± 0.0066
10 | TGAGAATGTT | 1.09 ± 0.19
11 | TGAGAGGTCT | 1.017 ± 0.0097
12 | TGAGAGTCAG | 0.986 ± 0.017
13 | TGAGAGTTAT | 1 ± 0.051
14 | TGAGAGTTTT | 0.978 ± 0.036
15 | TGAGATAACA | 0.9943 ± 0.0033
16 | TGAGATACGA | 1.0108 ± 0.0001
17 | TGAGATCCCT | 1.03 ± 0.039
18 | TGAGATGGTC | 1.004 ± 0.01
19 | TGAGATTTTG | 0.983 ± 0.045
20 | TGAGCCATCG | 0.987 ± 0.02
21 | TGAGCGAGTG | 0.957 ± 0.028
22 | TGAGCGGCAA | 1.2 ± 0.22
23 | TGAGCGGTTG | 1 ± 0.018
24 | TGAGCGTCGG | 0.968 ± 0.051
25 | TGAGCGTTGG | 0.9987 ± 0.0062

Row | Sequence | switch fluorescence ratio
26 | TGAGCTATTG | 0.997 ± 0.015
27 | TGAGGAAGAC | 1.09 ± 0.014
28 | TGAGGAATTC | 1 ± 0.017
29 | TGAGGAGGG | 0.97516 ± 0.00046
30 | TGAGGAGGGA | 0.987 ± 0.013
31 | TGAGGATTTG | 1.02 ± 0.011
32 | TGAGGCCCAG | 1.01 ± 0.019
33 | TGAGGCCGGG | 1 ± 0.021
34 | TGAGGGGCAG | 0.984 ± 0.013
35 | TGAGGGGGCG | 1.03 ± 0.11
36 | TGAGGGGGCT | 0.9862 ± 0.0034
37 | TGAGGGGTGG | 0.961 ± 0.038
38 | TGAGGGTGGT | 0.981 ± 0.0012
39 | TGAGGGTGTT | 0.998 ± 0.011
40 | TGAGGGTTGC | 1.01 ± 0.018
41 | TGAGGTAGGC | 1.05 ± 0.024
42 | TGAGGTCAGA | 1.03 ± 0.013
43 | TGAGGTGAAA | 0.976 ± 0.03
44 | TGAGGTGCGT | 0.995 ± 0.033
45 | TGAGGTTTAG | 1.02 ± 0.028
46 | TGAGTAGGGG | 0.994 ± 0.017
47 | TGAGTATTAG | 0.999 ± 0.033
48 | TGAGTATTGC | 0.969 ± 0.04
49 | TGAGTATTGG | 0.99 ± 0.027
50 | TGAGTCAAGC | 1.01 ± 0.076

Row | Sequence | switch fluorescence ratio
51 | TGAGTGAAAT | 1.1 ± 0.014
52 | TGAGTGAATG | 0.9787 ± 0.0042
53 | TGAGTGATGT | 1.01 ± 0.023
54 | TGAGTGCAGC | 1.08 ± 0.12
55 | TGAGTGGATG | 0.971 ± 0.075
56 | TGAGTTAGGC | 1.04 ± 0.054
57 | TGAGTTCGTA | 1.02 ± 0.012
58 | TGAGTTGAAG | 0.9869 ± 0.0056
59 | TGAGTTTGGT | 0.97 ± 0.018
60 | TGATAATTTG | 1.006 ± 0.01
61 | TGATACATAA | 1.028 ± 0.0097
62 | TGATACTGGG | 1.06 ± 0.06
63 | TGATACTTAG | 1.061 ± 0.0084
64 | TGATAGACAT | 0.988 ± 0.019
65 | TGATAGGATT | 0.9764 ± 0.0021
66 | TGATAGGGTG | 1.03 ± 0.053
67 | TGATATAGGA | 1.01 ± 0.064
68 | TGATATATTT | 1.02 ± 0.046
69 | TGATATTGGT | 1.01 ± 0.021
70 | TGATCAAGGA | 0.997 ± 0.041
71 | TGATCATGCG | 1 ± 0.011
72 | TGATCCGGAG | 1.08 ± 0.038
73 | TGATCCGGAT | 1.02 ± 0.09
74 | TGATCGGGCA | 0.956 ± 0.031
75 | TGATCGTGAG | 1.02 ± 0.017

Row | Sequence | switch fluorescence ratio
76 | TGATGAGATC | 0.9734 ± 0.0082
77 | TGATGAGTCG | 1.0211 ± 0.00074
78 | TGATGATATA | 1.02 ± 0.013
79 | TGATGCAAGA | 1.3 ± 0.063
80 | TGATGCATGG | 1.05 ± 0.048
81 | TGATGGAGTA | 0.969 ± 0.016
82 | TGATGGCAAC | 1.11 ± 0.036
83 | TGATGGGGCG | 0.982 ± 0.023
84 | TGATGGGTC | 0.9961 ± 0.0054
85 | TGATGGTGC | 1.05 ± 0.066
86 | TGATGTGGGA | 1.027 ± 0.0047
87 | TGATGTTAAA | 0.998 ± 0.01
88 | TGATGTTATA | 0.968 ± 0.022
89 | TGATTAAGAT | 0.994 ± 0.026
90 | TGATTAGAGG | 1.02 ± 0.1
91 | TGATTATCTT | 1.047 ± 0.0097
92 | TGATTATTT | 0.978 ± 0.032
93 | TGATTCCGCT | 1.41 ± 0.025
94 | TGATTCCTGC | 1.02 ± 0.039
95 | TGATTCGAGC | 1.003 ± 0.0058
96 | TGATTCGGGT | 0.984 ± 0.029
97 | TGATTCGTTT | 0.985 ± 0.094
98 | TGATTGGTAA | 0.939 ± 0.021
99 | TGATTGTATC | 0.981 ± 0.055
100 | TGATTGTGTA | 0.987 ± 0.048
